Molecular target: FN-EIIIB
Test: BLI

FN-EIIIB, sequence (chain, as listed by the source): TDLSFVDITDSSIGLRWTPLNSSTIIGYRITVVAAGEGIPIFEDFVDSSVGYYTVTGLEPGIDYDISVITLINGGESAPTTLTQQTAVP

Kd [nM]	Binder
0.0626	LMJ2.4C (VHH, sortase-tagged with biotin in the Western blots ; Purified by a his-tag for BLI and sortase-tagged with biotin in the Western blots. The tag letters are not stated for the free nanobody, so they are left out.) VHH: QVQLVEAGGGLVQAGGSLRLSCAASGSTFSHSAGGWYRQAPEKQRELVAGIRSDGNINYADSVKDRFTISRDNASNTMYLQMNNLKPEDTAVYVCNIRGSYGNTYYSRWGQGIQVTVSS
0.3	LMJ1.2C (VHH, sortase-tagged with biotin in the Western blots ; Purified by a his-tag for BLI and sortase-tagged with biotin in the Western blots. The tag letters are not stated for the free nanobody, so they are left out.) VHH: QVQLVETGGGLVQAGGSLRLSCAASGSTFSHSAGGWYRQAPEKQRELVAGIRSDGNINYADSVKDRFTISRDNASNTMYLQMNNLKPEDTAVYVCNIRGSYGNTYYSRWGQGTQVTVSS
0.227	LMJ2.5H (VHH, sortase-tagged with biotin in the Western blots ; Western blots used the nanobody sortase-tagged with biotin at a terminus. The BLI material was his-tag purified. Tag letters are not stated for the stand-alone nanobody and are left out.) VHH: QVQLVETGGGLVQAGGSLRLSCAVSGSTFSHSAGGWYRQAPEKQRELVAGIRSDGNINYADSVKDRFTISRDNASNTMYLQMNNLKPEDTAVYVCNIRGSYGNTYYSRWGQGTQVTVSS
0.344	LMJ2.6A (VHH, sortase-tagged with biotin in the Western blots ; Purified by a his-tag for BLI and sortase-tagged with biotin in the Western blots. The tag letters are not stated for the free nanobody, so they are left out.) VHH: RVQLVETGGGLVQAGGSLRLSCAVSGRTFSHSAGGWYRQAPEKQRELVAGIRSDGNINYADSVKDRFTISRDNASNTMYLQMNNLKPGDTAVYVCNIRGSYGNTYYSRWGQGTQVTVSS
0.973	LMJ1.2G (VHH, sortase-tagged with biotin in the Western blots ; Purified by a his-tag for BLI and sortase-tagged with biotin in the Western blots. The tag letters are not stated for the free nanobody, so they are left out.) VHH: QVQLVETGGGLVQAGGSLRLSCAASGSTFSHSAGGWYRQAPEKQRELVAGIGSDGNINYADSVKDRFTISRDNASNTMYLQMNNLKPEDTAVYVCNIRGSYGNTYYSRWGQGTQVTVSS
1.82	NJB2 (parental nanobody) (VHH, Purified by a his-tag. Its letters and position are not stated for the free nanobody, so it is left out.) VHH: QVQLVETGGGLVQAGGSLRLSCAASGSTFSHNAGGWYRQAPEKQRELVAGISSDGNINYADSVKDRFTISRDNASNTMYLQMNNLKPEDTAVYVCNIRGSYGNTYYSRWGQGTQVTVSS
0.0622	LMJ2.5J (VHH, sortase-tagged with biotin in the Western blots ; Western blots used the nanobody sortase-tagged with biotin at a terminus. The BLI material was his-tag purified. Tag letters are not stated for the stand-alone nanobody and are left out.) VHH: QVQLVETRGGLVQAGGSLRLSCAVSGSTFSHSAGGWYRQAPEKQRELVAGIGSAGNINYADSVKDRFTISRDNASNTMYLQMNNLKPEDTAVYVCNIRGSYGNTYYSRWGQGTQVTVSS
0.0254	LMJ2.5I (VHH, sortase-tagged with biotin in the Western blots ; Purified by a his-tag for BLI and sortase-tagged with biotin in the Western blots. The tag letters are not stated for the free nanobody, so they are left out.) VHH: RVQLVETGGGLVQAGGSLRLSCAVSGSTFSHSAGGWYRQAPEKQRELVAGIRSDGNINYADSVKDRFTISRDNASNTMYLQMNNLKPEDTAVYVCNIRGSYGNTYYSRWGQGAQVTVSS
0.166	LMJ2.5G (VHH, sortase-tagged with biotin in the Western blots ; Western blots used the nanobody sortase-tagged with biotin at a terminus. The BLI material was his-tag purified. Tag letters are not stated for the stand-alone nanobody and are left out.) VHH: QVQLVETEGGLVQAGGSLRLSCAASGSTFSHSAGGWYRQAPEKQRELVAGIRSDGNINYADSVKDRFTISRDNASNTMYLQMNNLKPEDTAVYVCNIRGSYGNTYYSRWGQGTQVTVSS
0.402	LMJ1.3J (VHH, sortase-tagged with biotin in the Western blots ; Purified by a his-tag for BLI and sortase-tagged with biotin in the Western blots. The tag letters are not stated for the free nanobody, so they are left out.) VHH: QVQLVGTGGGLVQAGGSLRLSCAASGSTFSHSAGGWYRQAPEKQRELVAGISSAGNINYADSVKDRFTISRDNASNTMYLQMNNLKPEDTAVYVCNIRGSYGNTYYSRWGQGTQVTVSS
0.0785	LMJ2.5C (VHH, sortase-tagged with biotin in the Western blots ; Purified by a his-tag for BLI and sortase-tagged with biotin in the Western blots. The tag letters are not stated for the free nanobody, so they are left out.) VHH: QVQLVETGGGLVQAGGSLRLSCAASGSTFSHSAGGWYRQAPEKQRELVAGVRSDGNINYADSVKDRFTISRDNASNTMYLQMNNLKPEDTAVYVCNIRGSYGNTYYSRWGQGIQVTVSS
